This note sets out measurements from paper PMC2116414.

One may read the stoichiometry N as the number of molecules, sites or subunits per partner or assembly.

The target in this test is Acanthamoeba myosin-II (Acanthamoeba). Put plainly: electron microscopy.

Take Acanthamoeba myosin-II (complex): the stoichiometry N was 8.
